From paper PMC5470993 (2017)

Target: Rac1 (Homo sapiens, UniProt P63000)
Assay: GST pull-down

Kd: 0.243 µM
B1: PAK1 RBD (protein)
chain: KKEKERPEISLPSDFEHTIHVGFDAVTGEFTGMPEQWARLLQTSNITKSEQKKNPQAVLDVLEFYNSKKTSNSQKYMSFTDKSA
